Results reported in patent US20100330078A1 (Pfizer, published 2010).

Columns and labels:
[1] = molecular target: T1, human integrin α5β1 on cells (endogenous, HUVEC; tumor or endothelial-expressed) (human, UniProt P08648 42-1049; P05556 21-798); assay: cell-based or functional assay
Murine FcγRIII = molecular target: T2, Murine FcγRIII (murine, UniProt P08508 31-215, limits assumed); assay: Biacore, KD against 22B5 wild type IgG1
T2 construct: Construct not described; also called mFcγRIII
T2 sequence (looked up): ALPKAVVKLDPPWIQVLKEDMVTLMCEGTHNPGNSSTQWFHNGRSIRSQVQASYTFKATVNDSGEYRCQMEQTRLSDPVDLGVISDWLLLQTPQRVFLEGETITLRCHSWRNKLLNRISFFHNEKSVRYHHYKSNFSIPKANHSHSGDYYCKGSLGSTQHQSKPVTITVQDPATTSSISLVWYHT
Method: (§1) The ability of 22B5/DLE, which contains the IgG1 DLE triple mutations (as discussed previously in Example 2), to enhance binding to the FcγRs was evaluated in a Biacore binding experiment. The FcγR binding affinities of 22B5/DLE were compared with the binding affinity of wild type (wt) IgG1. […] The binding affinity comparison of 22B5/DLE and wild type IgG1 was also evaluated against the murine Fcγ receptors. The greatest enhancement in binding was to the mFcγRIV, followed by mFcγRI, and mFcγRIII (see FIG. 5).

Murine FcγRIV = molecular target: T3, Murine FcγRIV (murine, UniProt A0A0B4J1G0 21-203); assay: Biacore, KD against 22B5 wild type IgG1
T3 construct: Construct not described; also called mFcγRIV
T3 sequence: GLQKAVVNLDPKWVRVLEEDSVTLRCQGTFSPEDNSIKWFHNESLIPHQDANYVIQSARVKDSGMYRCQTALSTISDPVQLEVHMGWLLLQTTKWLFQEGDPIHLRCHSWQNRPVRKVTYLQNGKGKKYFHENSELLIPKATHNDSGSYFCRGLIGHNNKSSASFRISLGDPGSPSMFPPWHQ
Method: as §1

Human FcγRI = molecular target: T4, Human FcγRI (human, UniProt P12314 16-288, limits assumed); assay: Biacore, KD against 22B5 wild type IgG1
T4 construct: Construct used in Biacore is not described
Method: as §1

Human FcγRIIa/131H = molecular target: T5, Human FcγRIIa/131H (human, UniProt P12318 36-218, limits assumed); assay: Biacore, KD against 22B5 wild type IgG1
T5 construct: Polymorphic variant 131H; construct not described
T5 sequence (looked up): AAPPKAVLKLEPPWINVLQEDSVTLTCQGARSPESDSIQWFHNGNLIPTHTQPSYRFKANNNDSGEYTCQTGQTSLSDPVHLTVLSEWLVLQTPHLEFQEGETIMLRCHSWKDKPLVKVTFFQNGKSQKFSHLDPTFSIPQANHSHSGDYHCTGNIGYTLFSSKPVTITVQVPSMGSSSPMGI
Method: as §1

Human FcγRIIa/131R = molecular target: T6, Human FcγRIIa/131R (human, UniProt P12318 36-218, limits assumed); assay: Biacore, KD against 22B5 wild type IgG1
T6 construct: Polymorphic variant 131R; construct not described
T6 sequence (looked up): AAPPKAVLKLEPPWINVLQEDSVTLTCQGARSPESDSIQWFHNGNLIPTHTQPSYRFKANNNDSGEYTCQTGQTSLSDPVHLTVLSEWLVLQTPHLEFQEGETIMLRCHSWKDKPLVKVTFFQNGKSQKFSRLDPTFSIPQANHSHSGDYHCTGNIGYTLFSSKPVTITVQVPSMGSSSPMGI
Method: as §1

Human FcγRIIIa/158F = molecular target: T7, Human FcγRIIIa/158F (human, UniProt P08637 17-208, limits assumed); assay: Biacore, KD against 22B5 wild type IgG1
T7 construct: also called Human FcγRIII/158F
Method: as §1

Human FcγRIIIa/158V = molecular target: T8, Human FcγRIIIa/158V (human, UniProt P08637 17-208, limits assumed); assay: Biacore, KD against 22B5 wild type IgG1
T8 construct: also called Human FcγRIII/158V
Method: as §1

Murine FcγRI = molecular target: T9, Murine FcγRI (murine, UniProt P26151 25-297, limits assumed); assay: Biacore, KD against 22B5 wild type IgG1
T9 construct: Construct not described; also called mFcγRI
T9 sequence (looked up): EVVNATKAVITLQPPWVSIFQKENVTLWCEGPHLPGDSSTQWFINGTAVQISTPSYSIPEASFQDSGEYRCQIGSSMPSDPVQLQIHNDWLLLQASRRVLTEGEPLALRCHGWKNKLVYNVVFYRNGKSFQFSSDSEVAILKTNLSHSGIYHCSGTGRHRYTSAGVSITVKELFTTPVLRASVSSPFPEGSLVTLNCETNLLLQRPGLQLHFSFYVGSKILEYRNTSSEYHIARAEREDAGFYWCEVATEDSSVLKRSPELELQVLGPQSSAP
Method: as §1

[2] = molecular target: T1, human integrin α5β1 on cells …; assay: FACS on HUVEC, geometric mean against mAb concentration, two-state equilibrium model
Method: (§2) The 22B5/DLE antibody was tested for its binding affinity to cell surface integrin α5 using a FACS assay, employing endogenous human integrin α5β1 expressing cells (HUVEC). Briefly, the cells were detached using trypsin-EDTA and washed with cold PBS. After being aliquoted into 96-well plates, the cells were blocked by serum and incubated with different concentrations of specific mAb for 1 hour at 4° C. Subsequently, the cells were washed and incubated with an anti-human κ secondary antibody conjugated with the R-PE fluorophore and analyzed using a FACSCalibur flow cytometer. 10,000 events were collected for each sample without applying any gating. For KD determination, the Geometric Mean of each sample histogram was calculated and plotted as a function of the mAb concentration. KD was calculated after fitting to a two-state equilibrium model.

[3] = molecular target: T1, human integrin α5β1 on cells …; assay: FACS on HUVEC (endogenous human α5β1), GeoMean against mAb concentration, fitted; experiment 031307
Method: as §2, with “22B5/DLE, 24C7/DLE, 1 D9/DLE, and 2D2/DLE antibodies were” for “22B5/DLE antibody was”, “their” for “its”

T1 sequence (P08648 42-1049, chain 1 of 2): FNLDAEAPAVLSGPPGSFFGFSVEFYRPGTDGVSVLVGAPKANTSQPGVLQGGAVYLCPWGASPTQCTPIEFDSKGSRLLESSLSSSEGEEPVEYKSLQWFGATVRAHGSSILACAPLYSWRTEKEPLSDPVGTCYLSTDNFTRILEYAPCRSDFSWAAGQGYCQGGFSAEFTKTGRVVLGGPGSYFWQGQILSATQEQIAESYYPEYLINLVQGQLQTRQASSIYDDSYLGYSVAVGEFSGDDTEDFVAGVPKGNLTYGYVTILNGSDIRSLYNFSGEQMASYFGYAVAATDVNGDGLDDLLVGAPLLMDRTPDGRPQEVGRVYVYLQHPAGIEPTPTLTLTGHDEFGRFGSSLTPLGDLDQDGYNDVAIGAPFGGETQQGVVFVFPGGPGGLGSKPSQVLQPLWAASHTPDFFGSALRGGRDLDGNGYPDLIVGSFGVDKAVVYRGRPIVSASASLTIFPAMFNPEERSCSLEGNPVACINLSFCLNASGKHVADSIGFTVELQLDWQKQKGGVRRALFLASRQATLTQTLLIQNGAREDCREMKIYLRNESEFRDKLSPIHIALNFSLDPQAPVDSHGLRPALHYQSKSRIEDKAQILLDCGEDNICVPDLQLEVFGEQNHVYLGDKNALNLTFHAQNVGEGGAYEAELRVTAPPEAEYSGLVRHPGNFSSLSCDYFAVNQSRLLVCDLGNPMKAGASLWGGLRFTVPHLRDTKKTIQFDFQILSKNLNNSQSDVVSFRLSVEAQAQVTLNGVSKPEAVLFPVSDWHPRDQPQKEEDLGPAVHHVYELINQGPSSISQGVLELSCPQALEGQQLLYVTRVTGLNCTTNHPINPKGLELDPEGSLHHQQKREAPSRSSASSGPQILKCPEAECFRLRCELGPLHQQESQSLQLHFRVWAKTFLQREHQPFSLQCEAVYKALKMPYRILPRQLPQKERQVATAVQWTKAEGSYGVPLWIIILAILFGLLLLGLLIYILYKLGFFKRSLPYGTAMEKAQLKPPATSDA
T1 sequence (P05556 21-798, chain 2 of 2): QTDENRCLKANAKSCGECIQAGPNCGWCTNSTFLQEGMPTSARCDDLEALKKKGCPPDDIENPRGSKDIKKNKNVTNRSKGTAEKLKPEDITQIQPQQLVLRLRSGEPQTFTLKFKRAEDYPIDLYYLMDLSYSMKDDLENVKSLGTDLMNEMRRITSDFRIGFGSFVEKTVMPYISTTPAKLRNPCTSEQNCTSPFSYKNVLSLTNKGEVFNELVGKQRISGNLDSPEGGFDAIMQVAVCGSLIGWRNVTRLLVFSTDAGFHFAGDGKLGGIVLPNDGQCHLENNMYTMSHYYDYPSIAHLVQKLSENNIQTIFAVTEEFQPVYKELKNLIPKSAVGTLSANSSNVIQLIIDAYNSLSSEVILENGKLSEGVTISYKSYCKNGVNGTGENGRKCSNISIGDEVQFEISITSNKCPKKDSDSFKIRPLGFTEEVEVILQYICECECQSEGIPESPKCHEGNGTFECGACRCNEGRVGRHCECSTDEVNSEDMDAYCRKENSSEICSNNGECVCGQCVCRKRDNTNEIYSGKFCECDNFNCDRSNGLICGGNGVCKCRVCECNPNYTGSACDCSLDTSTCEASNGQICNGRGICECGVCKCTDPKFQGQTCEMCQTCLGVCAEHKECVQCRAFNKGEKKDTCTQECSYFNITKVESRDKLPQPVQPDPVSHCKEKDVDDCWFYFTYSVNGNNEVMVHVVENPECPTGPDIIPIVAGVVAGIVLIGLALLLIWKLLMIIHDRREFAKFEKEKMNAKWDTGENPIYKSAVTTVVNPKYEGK
T4 sequence (P12314 16-288 limits assumed): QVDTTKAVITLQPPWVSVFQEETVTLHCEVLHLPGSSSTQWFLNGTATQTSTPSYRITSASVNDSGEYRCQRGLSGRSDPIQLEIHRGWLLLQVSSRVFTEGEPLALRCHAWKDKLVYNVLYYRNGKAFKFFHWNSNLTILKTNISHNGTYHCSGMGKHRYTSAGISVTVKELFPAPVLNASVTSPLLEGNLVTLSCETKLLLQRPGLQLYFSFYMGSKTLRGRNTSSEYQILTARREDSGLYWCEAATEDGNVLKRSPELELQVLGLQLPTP
T7 sequence (P08637 17-208 limits assumed): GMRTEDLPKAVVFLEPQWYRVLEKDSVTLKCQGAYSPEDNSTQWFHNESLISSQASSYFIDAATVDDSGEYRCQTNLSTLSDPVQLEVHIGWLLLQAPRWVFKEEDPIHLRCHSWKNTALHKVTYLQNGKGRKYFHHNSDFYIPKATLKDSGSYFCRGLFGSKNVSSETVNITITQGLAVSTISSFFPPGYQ
T8 sequence (P08637 17-208 F176V limits assumed): as the sequence (P08637 17-208 limits assumed) above, with F160V counted along it

B1: 22B5/DLE (antibody, human IgG1, kappa)
heavy: QLQLQESGPGLVKPSETLSLTCTVSGGSISSSSYWGWIRQPPGKGLEWIGSIYYSGRNYNNPSLKSRVTISVDTSKNQFSLKLSSVTAADTAVYYCARHYYGSGSSYYYYDLDVWGQGTTVTVSSASTKGPSVFPLAPSSKSTSGGTAALGCLVKDYFPEPVTVSWNSGALTSGVHTFPAVLQSSGLYSLSSVVTVPSSSLGTQTYICNVNHKPSNTKVDKKVEPKSCDKTHTCPPCPAPELLGGPDVFLFPPKPKDTLMISRTPEVTCVVVDVSHEDPEVKFNWYVDGVEVHNAKTKPREEQYNSTYRVVSVLTVLHQDWLNGKEYKCKVSNKALPLPEEKTISKAKGQPREPQVYTLPPSREEMTKNQVSLTCLVKGFYPSDIAVEWESNGQPENNYKTTPPVLDSDGSFFLYSKLTVDKSRWQQGNVFSCSVMHEALHNHYTQKSLSLSPGK
light: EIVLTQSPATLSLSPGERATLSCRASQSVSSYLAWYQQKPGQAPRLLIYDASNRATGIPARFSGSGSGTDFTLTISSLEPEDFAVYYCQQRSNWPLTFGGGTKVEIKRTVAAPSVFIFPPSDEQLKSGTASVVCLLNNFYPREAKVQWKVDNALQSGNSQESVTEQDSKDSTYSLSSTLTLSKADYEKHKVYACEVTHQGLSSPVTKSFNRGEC
notes: Human IgG1 with Fc mutations S247D, A338L, I340E; the VH already holds the germline back-mutations I30S and N33S; also called 22B5 IgG1 DLE; 22B5 G1 DLE
IC50, inhibition of HUVEC adhesion to fibronectin (fluorescence 485/535 nM) [1]: 1.01 nM | Fold enhancement over wt IgG1 (Murine FcγRIII): 5 fold | Fold enhancement over wt IgG1 (Murine FcγRIV): 260 fold | Fold enhancement over wt IgG1 (Human FcγRI): 6 fold | Fold enhancement over wt IgG1 (Human FcγRIIa/131H): 1.6 fold | Fold enhancement over wt IgG1 (Human FcγRIIa/131R): 2.3 fold | Fold enhancement over wt IgG1 (Human FcγRIIIa/158F): 122 fold | Fold enhancement over wt IgG1 (Human FcγRIIIa/158V): 70 fold | Fold enhancement over wt IgG1 (Murine FcγRI): 14 fold | Kd [2]: 2.15 nM | Kd [3]: 1.99 nM
